# Paper PMC3742456
# pKd: −log10 of the molar value.
# Target: c-kit receptor (CD117), expressed on BJAB c-kit cells (Mus musculus) (UniProt P05532)
# Experiment: flow cytometry (cell titration, 0-100 nM)
# Conditions: apparent Kd on BJAB c-kit cells, background subtracted; Aptamer folded in SELEX buffer (DPBS with Ca/Mg, 5 mM MgCl2, 0.45% glucose, tRNA), 95 C then …; binding in DPBS with Ca/Mg + 0.1% BSA, 1 h on ice; FAM
# Chain of UniProt P05532 (P05532 25-979): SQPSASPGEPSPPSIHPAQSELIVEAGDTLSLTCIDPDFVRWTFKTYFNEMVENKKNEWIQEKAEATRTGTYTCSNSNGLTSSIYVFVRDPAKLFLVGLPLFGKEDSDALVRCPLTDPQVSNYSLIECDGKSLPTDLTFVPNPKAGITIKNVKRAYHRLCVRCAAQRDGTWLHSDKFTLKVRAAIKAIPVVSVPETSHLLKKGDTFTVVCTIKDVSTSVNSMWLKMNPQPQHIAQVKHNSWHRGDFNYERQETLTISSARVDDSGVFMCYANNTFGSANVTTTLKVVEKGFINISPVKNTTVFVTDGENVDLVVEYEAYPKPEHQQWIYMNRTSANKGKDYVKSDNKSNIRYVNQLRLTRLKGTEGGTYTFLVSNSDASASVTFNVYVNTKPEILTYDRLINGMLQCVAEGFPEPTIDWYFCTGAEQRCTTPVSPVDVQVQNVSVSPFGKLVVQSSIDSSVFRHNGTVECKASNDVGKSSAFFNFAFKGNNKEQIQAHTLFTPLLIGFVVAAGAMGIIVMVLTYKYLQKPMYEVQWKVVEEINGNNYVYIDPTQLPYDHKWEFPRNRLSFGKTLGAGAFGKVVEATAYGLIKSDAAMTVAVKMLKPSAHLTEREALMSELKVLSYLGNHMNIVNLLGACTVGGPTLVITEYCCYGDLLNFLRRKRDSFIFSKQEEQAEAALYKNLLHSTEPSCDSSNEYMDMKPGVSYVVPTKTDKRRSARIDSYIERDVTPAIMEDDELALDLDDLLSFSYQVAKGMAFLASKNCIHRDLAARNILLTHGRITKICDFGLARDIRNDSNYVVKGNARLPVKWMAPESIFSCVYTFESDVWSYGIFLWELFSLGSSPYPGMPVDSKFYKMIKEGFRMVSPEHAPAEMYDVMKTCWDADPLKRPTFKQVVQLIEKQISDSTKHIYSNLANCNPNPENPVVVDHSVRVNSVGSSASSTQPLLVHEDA
sequence,measurement,value
AGCAGCACAGAGGTCAGATGGCTCAACGCGGGACGGCTCTCCCATTGACCCTATGCGTGCTACCGTGAA [Kit-129],pKd,7.91
